Eleven molecules from patent publication US20220306695A1, “COMPSTATIN ANALOGUES AND THEIR MEDICAL USES” (priority 2019, published 2022) can be followed below.

Starred links: 1 amine or outer side, 2 acyl side, 3 side chain; linkers in the order of their positions; H or OH if unused. Positions of bridges follow the written chain, without caps; N, C: chain ends. Non-standard residues stand in square brackets, D forms with d. Groups on a side chain read outwards from the residue. *: point of attachment. Trp(1-Me) = Cn1cc(C[C@H](N)C(=O)O)c2ccccc21; C18 diacid = O=C(O)CCCCCCCCCCCCCCCCC(=O)*; C16 diacid = O=C(O)CCCCCCCCCCCCCCC(=O)*; γGlu = O=C(O)[C@H](CCC(=O)[*:2])N[*:1]; hCys = N[C@@H](CCS)C(=O)O; AEEA = NCCOCCOCC(=O)O; Sar = CNCC(=O)O

Sequences and labels used below:
B1: Compound 165 (peptide)
peptide: Ac-SEF[hCys]I[Trp(1-Me)]QDWGEHRATEGE[AEEA]ESK([γGlu-C18 diacid])-NH2
modifications: thioether 4-14
SMILES: CC[C@H](C)[C@@H]1NC(=O)[C@@H](NC(=O)[C@H](Cc2ccccc2)NC(=O)[C@H](CCC(=O)O)NC(=O)[C@H](CO)NC(C)=O)CCSC[C@@H](C(=O)N[C@H](C(=O)N[C@@H](CCC(=O)O)C(=O)NCC(=O)N[C@@H](CCC(=O)O)C(=O)NCCOCCOCC(=O)N[C@@H](CCC(=O)O)C(=O)N[C@@H](CO)C(=O)N[C@@H](CCCCNC(=O)CC[C@H](NC(=O)CCCCCCCCCCCCCCCCC(=O)O)C(=O)O)C(N)=O)[C@@H](C)O)NC(=O)[C@H](CCCNC(=N)N)NC(=O)[C@H](Cc2c[nH]cn2)NC(=O)[C@H](CCC(=O)O)NC(=O)CNC(=O)[C@H](Cc2c[nH]c3ccccc23)NC(=O)[C@H](CC(=O)O)NC(=O)[C@H](CCC(N)=O)NC(=O)[C@H](Cc2cn(C)c3ccccc23)NC1=O
B2: Compound 150 (peptide)
peptide: SEFAIWQDWGEHRCGEGEXESK
modifications: not fully specified; N-acetyl; C-terminal amide; delta-cystathionine (Ctt2) thioether bridge A4-hCys14 (hCys written C); W6 is 1-Me-Trp; G10 is Sar; G15 is Sar; X19 is Peg3; K22 side chain bears [17-carboxy-heptadecanoyl][γGlu]G[γGlu]
B3: Compound 141 (peptide)
peptide: Ac-SEFCI[Trp(1-Me)]QDWGEHRC[Sar]EGESESK([γGlu-C18 diacid])-NH2
modifications: disulfide 4-14
SMILES: CC[C@H](C)[C@@H]1NC(=O)[C@@H](NC(=O)[C@H](Cc2ccccc2)NC(=O)[C@H](CCC(=O)O)NC(=O)[C@H](CO)NC(C)=O)CSSC[C@@H](C(=O)N(C)CC(=O)N[C@@H](CCC(=O)O)C(=O)NCC(=O)N[C@@H](CCC(=O)O)C(=O)N[C@@H](CO)C(=O)N[C@@H](CCC(=O)O)C(=O)N[C@@H](CO)C(=O)N[C@@H](CCCCNC(=O)CC[C@H](NC(=O)CCCCCCCCCCCCCCCCC(=O)O)C(=O)O)C(N)=O)NC(=O)[C@H](CCCNC(=N)N)NC(=O)[C@H](Cc2c[nH]cn2)NC(=O)[C@H](CCC(=O)O)NC(=O)CNC(=O)[C@H](Cc2c[nH]c3ccccc23)NC(=O)[C@H](CC(=O)O)NC(=O)[C@H](CCC(N)=O)NC(=O)[C@H](Cc2cn(C)c3ccccc23)NC1=O
B4: Compound 130 (peptide)
peptide: Ac-SEFCI[Trp(1-Me)]QDWGEHRCTEGEGGGK([γGlu-Gly-γGlu-C18 diacid])-NH2
modifications: disulfide 4-14
SMILES: CC[C@H](C)[C@@H]1NC(=O)[C@@H](NC(=O)[C@H](Cc2ccccc2)NC(=O)[C@H](CCC(=O)O)NC(=O)[C@H](CO)NC(C)=O)CSSC[C@@H](C(=O)N[C@H](C(=O)N[C@@H](CCC(=O)O)C(=O)NCC(=O)N[C@@H](CCC(=O)O)C(=O)NCC(=O)NCC(=O)NCC(=O)N[C@@H](CCCCNC(=O)CC[C@H](NC(=O)CNC(=O)CC[C@H](NC(=O)CCCCCCCCCCCCCCCCC(=O)O)C(=O)O)C(=O)O)C(N)=O)[C@@H](C)O)NC(=O)[C@H](CCCNC(=N)N)NC(=O)[C@H](Cc2c[nH]cn2)NC(=O)[C@H](CCC(=O)O)NC(=O)CNC(=O)[C@H](Cc2c[nH]c3ccccc23)NC(=O)[C@H](CC(=O)O)NC(=O)[C@H](CCC(N)=O)NC(=O)[C@H](Cc2cn(C)c3ccccc23)NC1=O
B5: Compound 157 (peptide)
peptide: Ac-SEFAI[Trp(1-Me)]QDWGEHR[hCys]TEGEGGGK([γGlu-Gly-γGlu-C18 diacid])-NH2
modifications: thioether 4-14
SMILES: CC[C@H](C)[C@@H]1NC(=O)[C@@H](NC(=O)[C@H](Cc2ccccc2)NC(=O)[C@H](CCC(=O)O)NC(=O)[C@H](CO)NC(C)=O)CSCC[C@@H](C(=O)N[C@H](C(=O)N[C@@H](CCC(=O)O)C(=O)NCC(=O)N[C@@H](CCC(=O)O)C(=O)NCC(=O)NCC(=O)NCC(=O)N[C@@H](CCCCNC(=O)CC[C@H](NC(=O)CNC(=O)CC[C@H](NC(=O)CCCCCCCCCCCCCCCCC(=O)O)C(=O)O)C(=O)O)C(N)=O)[C@@H](C)O)NC(=O)[C@H](CCCNC(=N)N)NC(=O)[C@H](Cc2c[nH]cn2)NC(=O)[C@H](CCC(=O)O)NC(=O)CNC(=O)[C@H](Cc2c[nH]c3ccccc23)NC(=O)[C@H](CC(=O)O)NC(=O)[C@H](CCC(N)=O)NC(=O)[C@H](Cc2cn(C)c3ccccc23)NC1=O
B6: Compound 139 (peptide)
peptide: Ac-SEFCI[Trp(1-Me)]QDWGEHRC[Sar]EGESESK([γGlu-Gly-γGlu-C18 diacid])-NH2
modifications: disulfide 4-14
SMILES: CC[C@H](C)[C@@H]1NC(=O)[C@@H](NC(=O)[C@H](Cc2ccccc2)NC(=O)[C@H](CCC(=O)O)NC(=O)[C@H](CO)NC(C)=O)CSSC[C@@H](C(=O)N(C)CC(=O)N[C@@H](CCC(=O)O)C(=O)NCC(=O)N[C@@H](CCC(=O)O)C(=O)N[C@@H](CO)C(=O)N[C@@H](CCC(=O)O)C(=O)N[C@@H](CO)C(=O)N[C@@H](CCCCNC(=O)CC[C@H](NC(=O)CNC(=O)CC[C@H](NC(=O)CCCCCCCCCCCCCCCCC(=O)O)C(=O)O)C(=O)O)C(N)=O)NC(=O)[C@H](CCCNC(=N)N)NC(=O)[C@H](Cc2c[nH]cn2)NC(=O)[C@H](CCC(=O)O)NC(=O)CNC(=O)[C@H](Cc2c[nH]c3ccccc23)NC(=O)[C@H](CC(=O)O)NC(=O)[C@H](CCC(N)=O)NC(=O)[C@H](Cc2cn(C)c3ccccc23)NC1=O
B7: Compound 147 (peptide)
peptide: SEFAIWQDWGEHRCGEXXK
modifications: not fully specified; N-acetyl; C-terminal amide; delta-cystathionine (Ctt2) thioether bridge A4-hCys14 (hCys written C); W6 is 1-Me-Trp; G10 is Sar; G15 is Sar; X17 and X18 are Peg3; K19 side chain bears [17-carboxy-heptadecanoyl][γGlu]G[γGlu]

The target in one test is T1, Human C3 (human, UniProt P01024 23-1663).
T1 construct: In SPR the bought human C3 was immobilised on CM5 chips by amine coupling; In the haemolysis assay the C3 is that of diluted human serum; also called complement C3
T1 sequence (P01024 23-1663 limits assumed): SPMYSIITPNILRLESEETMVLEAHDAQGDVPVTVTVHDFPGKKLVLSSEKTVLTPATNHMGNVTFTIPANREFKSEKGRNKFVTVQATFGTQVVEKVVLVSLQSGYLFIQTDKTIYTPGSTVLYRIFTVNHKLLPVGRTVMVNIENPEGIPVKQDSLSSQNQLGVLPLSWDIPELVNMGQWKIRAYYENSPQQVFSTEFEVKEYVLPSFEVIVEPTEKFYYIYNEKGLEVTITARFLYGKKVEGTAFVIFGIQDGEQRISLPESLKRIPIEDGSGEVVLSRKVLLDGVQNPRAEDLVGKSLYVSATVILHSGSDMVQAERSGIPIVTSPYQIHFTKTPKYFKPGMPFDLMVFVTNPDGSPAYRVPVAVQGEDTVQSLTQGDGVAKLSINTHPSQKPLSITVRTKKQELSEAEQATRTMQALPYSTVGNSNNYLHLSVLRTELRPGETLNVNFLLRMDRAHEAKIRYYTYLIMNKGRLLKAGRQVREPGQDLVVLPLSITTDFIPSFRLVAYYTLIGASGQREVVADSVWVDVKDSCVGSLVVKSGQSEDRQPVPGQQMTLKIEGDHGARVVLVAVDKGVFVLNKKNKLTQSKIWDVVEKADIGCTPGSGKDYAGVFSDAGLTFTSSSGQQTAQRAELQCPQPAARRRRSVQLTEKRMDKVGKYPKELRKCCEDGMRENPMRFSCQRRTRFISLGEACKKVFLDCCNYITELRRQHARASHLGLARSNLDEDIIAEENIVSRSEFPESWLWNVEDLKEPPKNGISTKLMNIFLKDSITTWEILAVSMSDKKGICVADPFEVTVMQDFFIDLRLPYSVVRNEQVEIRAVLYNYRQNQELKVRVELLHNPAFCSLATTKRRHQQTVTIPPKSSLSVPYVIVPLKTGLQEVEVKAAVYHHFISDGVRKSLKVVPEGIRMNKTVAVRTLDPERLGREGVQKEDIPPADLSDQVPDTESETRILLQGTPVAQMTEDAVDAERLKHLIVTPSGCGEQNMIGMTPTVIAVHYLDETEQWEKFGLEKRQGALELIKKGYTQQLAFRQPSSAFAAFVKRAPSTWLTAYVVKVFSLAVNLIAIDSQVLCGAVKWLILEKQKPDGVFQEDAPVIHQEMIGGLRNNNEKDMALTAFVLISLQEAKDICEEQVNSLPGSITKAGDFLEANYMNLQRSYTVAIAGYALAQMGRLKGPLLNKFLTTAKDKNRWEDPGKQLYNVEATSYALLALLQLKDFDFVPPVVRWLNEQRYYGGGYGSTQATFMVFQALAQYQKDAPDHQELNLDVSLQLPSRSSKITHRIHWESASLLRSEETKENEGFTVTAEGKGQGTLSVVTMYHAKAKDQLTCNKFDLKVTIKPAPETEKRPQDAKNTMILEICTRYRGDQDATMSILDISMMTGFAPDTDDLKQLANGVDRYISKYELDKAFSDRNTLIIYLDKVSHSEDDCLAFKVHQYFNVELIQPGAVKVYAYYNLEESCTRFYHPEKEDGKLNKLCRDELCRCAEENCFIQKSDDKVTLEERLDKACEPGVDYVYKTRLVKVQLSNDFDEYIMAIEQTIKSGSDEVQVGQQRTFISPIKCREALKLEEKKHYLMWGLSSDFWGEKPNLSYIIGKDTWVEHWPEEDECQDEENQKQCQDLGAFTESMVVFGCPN
The test is described as follows: SPR, C3 immobilised. The procedure:
Surface plasmon resonance (SPR) was used to characterize peptides with respect to their binding affinity (Kd) for C3. Human C3 (Complement tech cat #A1 13c) was immobilised on individual flow cells of CM5 sensor chips (GE Healthcare) using standard amine coupling to a density of approximately 3000 resonance units (RU) in a buffer consisting of 10 mM phosphate pH 7.4, 150 mM NaCl, 0.05% Tween20.
For interaction experiments a multi-cycle experiment approach was used and performed using either a Biacore™ T200 or Biacore™ X100 instrument (GE Healthcare) at 25° C. Peptides were injected in increasing concentration series (5-8 different concentrations) for 60-120 s at a flow rate of 30 μL/min in a buffer consisting of 10 mM Tris buffer at pH 7.4, with 150 mM NaCl and 0.05% Tween20. This was followed by a dissociation period for up to 10 min. The C3 surface was regenerated between runs by a 45 s injection of 3 M MgCl₂.
Sensorgrams were double-referenced (reference surface, blanks) prior to analysis of the kinetic profiles by globally fitting data to a 1:1 Langmuir binding model to obtain association and dissociation rates for calculation of the equilibrium dissociation constant Kd. Each peptide was tested at in at least 2 independent experiments.
A general note: SPR reads the build-up and loss of mass on a sensor chip optically.
As a reminder, the Kd is the concentration at which binding is half-saturated. As to Ac-SEFCI[Trp(1-Me)]QDWGEHRC[Sar]EGE[AEEA]ESK([γGlu-γGlu-C18 diacid])-NH2 (disulfide 4-14) [Compound 140], the Kd turned out to be 7.6 nM.

Take B1: the affinity, expressed as Kd, was 20.7 nM.

The molecule B2 came in with a Kd of 0.56 nM.

With Ac-SEFCI[Trp(1-Me)]QDWGEHRCTEGE[AEEA]ESK([γGlu-C18 diacid])-NH2 (disulfide 4-14) [Compound 142], the Kd turned out to be 4.8 nM.

The molecule Ac-SEFCI[Trp(1-Me)]QDWGEHRC[Sar]EGE[AEEA][AEEA]K([γGlu-Gly-γGlu-C16 diacid])-NH2 (disulfide 4-14) [Compound 127] showed a Kd of 8.5 nM.

Take B3: the affinity, expressed as Kd, was 6.6 nM.

In the case of B4, the Kd came out at 4.4 nM.

Take B5: the Kd was 3.5 nM.

Turning to B6, the dissociation constant Kd was found to be 7.4 nM.

B7 showed a Kd of 0.71 nM.

Ac-SEF[hCys]I[Trp(1-Me)]QDW[Sar]EHRA[Sar]E[AEEA][AEEA]K([γGlu-Gly-γGlu-C18 diacid])-NH2 (thioether 4-14) [Compound 164] had a Kd of 6.4 nM.

The next test deals with T1, Human C3. Put plainly: cell-based or functional assay.
Ac-SEFCI[Trp(1-Me)]QDWGEHRC[Sar]EGE[AEEA]ESK([γGlu-γGlu-C18 diacid])-NH2 (disulfide 4-14) [Compound 140]: the “IC50[nM], inhibition of hemolysis” value is less than 100 nM.

As to B1, the “IC50[nM], inhibition of hemolysis” value was less than 250 nM.

For the molecule B2, the “IC50[nM], inhibition of hemolysis” value was less than 100 nM.

Consider Ac-SEFCI[Trp(1-Me)]QDWGEHRCTEGE[AEEA]ESK([γGlu-C18 diacid])-NH2 (disulfide 4-14) [Compound 142], for which the “IC50[nM], inhibition of hemolysis” value was less than 100 nM.

For the molecule Ac-SEFCI[Trp(1-Me)]QDWGEHRC[Sar]EGE[AEEA][AEEA]K([γGlu-Gly-γGlu-C16 diacid])-NH2 (disulfide 4-14) [Compound 127], the “IC50[nM], inhibition of hemolysis” value was less than 100 nM.

Consider B3, for which the “IC50[nM], inhibition of hemolysis” value is less than 100 nM.

For B4, the “IC50[nM], inhibition of hemolysis” value is less than 100 nM.

In the case of B5, the “IC50[nM], inhibition of hemolysis” value was less than 100 nM.

On to B6, for which the “IC50[nM], inhibition of hemolysis” value was less than 100 nM.

For the molecule B7, the “IC50[nM], inhibition of hemolysis” value is less than 100 nM.

Consider Ac-SEF[hCys]I[Trp(1-Me)]QDW[Sar]EHRA[Sar]E[AEEA][AEEA]K([γGlu-Gly-γGlu-C18 diacid])-NH2 (thioether 4-14) [Compound 164], for which the “IC50[nM], inhibition of hemolysis” value is less than 100 nM.
